In the supplement of paper PMC10567573:

B1: MATN2 (parent)
chain: TDDSYSCHCLKGFTLNPDKKTCRR
B2: FBXO39 (parent)
chain: PSRVHASEVESAVWYVKKFGRYLE

Variants of: B1
Test: protein stability index of a GFP-peptide fusion (GPS, HEK-293T) (PSI 1-6); higher = more stable
Conditions: c terminus: a fixed tail appended
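Also: lentivirally expressed fusions sorted by FACS into six bins by GFP to DsRed ratio, PSI derived from sequencing read proportions per bin multiplied by bin number.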

Protein stability index of substitutions, site by site:
G12: A 2.45; C 2.54; D 2.19
C9: A 4.6; Q 4.1; N 4.57; R 3.88; L 3.93; M 3.96; T 3.24; P 4.53; W 3.79; E 4.37; H 3.75; K 4.03; G 4.47; S 4.48; F 3.47; Y 3.88; I 3.77; V 3.73
H8: M 2.92; R 2.51; E 2.84; I 2.27; F 2.14; N 1.91; C 2.05; P 1.63; Q 2.18; K 4.02; T 2.08; W 2.63; G 2.76; L 2.4; Y 2.71; V 2.33; S 2.3; A 1.66; D 2.05
S6: E 2.31; H 2.55; I 1.89; C 2.55; R 2.4; Y 2.12; W 2.32; G 2.4; P 2.5; M 1.68; V 3.42; D 2.94; L 2.15; Q 1.76; N 1.93; T 2.19; F 1.26; K 3.07
D2: A 1.88; E 1.98; P 1.66; T 2.08; H 2.15; M 2.09; G 2.98; N 2.32; S 2.11; F 1.41; W 2.24; Q 1.82; L 2.81; C 1.88; K 2.85; I 2.02; R 2.29; Y 1.26
Y5: S 2.66; P 2.14; Q 3.42; L 3.53; K 2.65; A 3.04; H 2.66; G 2.69; N 3.36; T 2.58; E 2.74; I 2.06; W 2.23; R 2; F 2.36; V 2.86; D 2.72; M 3.58
D3: A 2.24; K 1.93; W 1.41; E 1.73; L 2.36; H 2.15; Q 2.13; V 2.41; N 2.1; F 1.67; T 2.01; P 2.93; R 2.2; I 1.91; M 2.31; Y 1.76; S 2.24; C 2.17; G 2.36
K11: E 2.87; R 2.04; D 2.44; N 2.15; C 2.51; M 1.61; T 1.96; S 2.23; Y 2.4; P 2.36; F 2.27; G 2.78; V 2.06; I 2.08; L 2.04; Q 1.83; H 2.49; A 2.27; W 2.2
C7: D 4.78; R 3.88; Q 4.27; K 4.21; A 4.59; Y 3.71; G 4.45; P 3.65; I 3.9; H 3.54; M 4.22; N 4.38; F 3.96; V 4.28; L 4.59; E 4.61; W 3.21; S 4.54; T 4.54
L10: Q 1.77; D 3.55; F 2.46; M 1.9; W 2.98; P 3.56; S 2.55; C 3.11; V 1.72; Y 2.32; N 3.04; R 1.65; T 1.93; A 2.48; H 1.86; G 2.91; K 2.63; E 2.22; I 2.15
T1: G 2.71; Q 1.75; K 1.75; D 2.55; C 2; I 2.1; P 2.81; M 2.47; H 2.7; V 3.42; A 2.47; L 2.36; S 2.63; N 1.86; W 2.35; E 2.09; F 2.21; R 2.95
S4: V 2.22; C 1.8; T 2.04; R 2.03; M 2.22; D 2; E 2.79; N 1.23; I 2.87; W 1.81; H 2.66; A 1.34; P 2.64; L 1.84; Q 2.3; F 1.83; K 2.56; G 1.88; Y 1.77

Variants of: B2
Test: as above
Conditions: c terminus: a fixed tail appended

Protein stability index: each site, then its substitutions
L23: K 3.07; H 2.45; N 2.5; M 2.09; R 2.5; Y 2.53; T 2.32; W 2.08; C 2.26; P 2.58; E 2.26; Q 2.74; V 2.49; G 1.48; I 2.17; A 2.59; D 2.9; S 2.76; F 2.05
E24: Q 1.99; R 2.22; I 2.01; F 1.94; L 1.54; M 2.07; W 2.33; K 2.13; A 1.59; S 1.83; V 1.74; C 2.42; H 1.94; T 2.55; N 2.06; Y 2.2; G 1.94; D 1.9; P 2.26
F19: K 3.32; Q 2.79; V 1.98; E 3.76; T 2.55; D 3.27; Y 2.5; M 2.14; A 2.77; S 2.42; C 2.04; W 2.12; P 2.72; R 2.88; L 2.22; H 3.06; I 1.88; G 3.17; N 3.43
K18: S 1.81; H 1.89; T 1.73; N 1.88; Q 1.75; Y 1.47; P 2.07; V 1.75; M 1.82; W 2.4; L 1.79; G 2.02; I 2.93; R 1.5
G20: M 2.09; D 2.27; S 2.04; F 1.55; Q 2.55; E 2.95; H 1.62; K 2.19; Y 1.46; L 1.75; I 1.91; V 1.96; N 2.38; P 1.64; A 3.14; R 2.1; T 1.28; W 2.97
R21: V 2.42; K 1.87; S 2.22; W 2.08; N 2.3; T 2.08; G 2.42; E 2.5; D 3; P 1.98; H 2.04; A 1.74; L 1.53; C 1.47; M 1.37; F 1.9; I 2.19; Y 1.65; Q 2.09
Y22: F 1.91; Q 2.74; L 1.62; S 2.58; H 2.69; N 2.71; P 2.67; D 2.89; G 2.85; V 2.28; A 2.39; C 2.44; E 2.58; R 2.98; M 2.1; K 3.58; I 1.85; T 2.03; W 3.81
